B1: Estrogen receptor alpha, full length, ECFP-tagged, as in the ER βα FL biosensors with the linker [not stated] / Estrogen receptor beta (ER β), full length, mNeonGreen-tagged, as in the ER βα FL FRET biosensor [not stated] (parent)
chain 1: MTMTLHTKASGMALLHQIQGNELEPLNRPQLKIPLERPLGEVYLDSSKPAVYNYPEGAAYEFNAAAAANAQVYGQTGLPYGPGSEAAAFGSNGLGGFPPLNSVSPSPLMLLHPPPQLSPFLQPHGQQVPYYLENEPSGYTVREAGPPAFYRPNSDNRRQGGRERLASTNDKGSMAMESAKETRYCAVCNDYASGYHYGVWSCEGCKAFFKRSIQGHNDYMCPATNQCTIDKNRRKSCQACRLRKCYEVGMMKGGIRKDRRGGRMLKHKRQRDDGEGRGEVGSAGDMRAANLWPSPLMIKRSKKNSLALSLTADQMVSALLDAEPPILYSEYDPTRPFSEASMMGLLTNLADRELVHMINWAKRVPGFVDLTLHDQVHLLECAWLEILMIGLVWRSMEHPGKLLFAPNLLLDRNQGKCVEGMVEIFDMLLATSSRFRMMNLQGEEFVCLKSIILLNSGVYTFLSSTLKSLEEKDHIHRVLDKITDTLIHLMAKAGLTLQQQHQRLAQLLLILSHIRHMSNKGMEHLYSMKCKNVVPLYDLLLEMLDAHRLHAPTSRGGASVEETDQSHLATAGSTSSHSLQKYYITGEAEGFPATV
chain 2: MDIKNSPSSLNSPSSYNCSQSILPLEHGSIYIPSSYVDSHHEYPAMTFYSPAVMNYSIPSNVTNLEGGPGRQTTSPNVLWPTPGHLSPLVVHRQLSHLYAEPQKSPWCEARSLEHTLPVNRETLKRKVSGNRCASPVTGPGSKRDAHFCAVCSDYASGYHYGVWSCEGCKAFFKRSIQGHNDYICPATNQCTIDKNRRKSCQACRLRKCYEVGMVKCGSRRERCGYRLVRRQRSADEQLHCAGKAKRSGGHAPRVRELLLDALSPEQLVLTLLEAEPPHVLISRPSAPFTEASMMMSLTKLADKELVHMISWAKKIPGFVELSLFDQVRLLESCWMEVLMMGLMWRSIDHPGKLIFAPDLVLDRDEGKCVEGILEIFDMLLATTSRFRELKLQHKEYLCVKAMILLNSSMYPLVTATQDADSSRKLAHLLNAVTDALVWVIAKSGISSQQQSMRLANLLMLLSHVRHASNKGMEHLLNMKCKNVVPVYDLLLEMLNAHVLRGCKSSITGSECSPAEDSKSKEGSQNPQSQ

Variants of: B1
Test: live-cell FRET biosensor imaging (ER βα heterodimerization, FRET/ECFP emission ratio)
Conditions: with Estrogen receptor beta (ER β), 1 µM 17β-estradiol, value read at the end of the time course (30 min after E2), α mutant n = 12, WT n = 24, read off a plot, scale: R/R0

Row | Variant | response
1 | chain 1 MTMTLHTKASGMALLHQIQGNELEPLNRPQLKIPLERPLGEVYLDSSKPAVYNYPEGAAYEFNAAAAANAQVYGQTGLPYGPGSEAAAFGSNGLGGFPPLNSVSPSPLMLLHPPPQLSPFLQPHGQQVPYYLENEPSGYTVREAGPPAFYRPNSDNRRQGGRERLASTNDKGSMAMESAKETRYCAVCNDYASGYHYGVWSCEGCKAFFKRSIQGHNDYMCPATNQCTIDKNRRKSCQACRLRKCYEVGMMKGGIRKDRRGGRMLKHKRQRDDGEGRGEVGSAGDMRAANLWPSPLMIKRSKKNSLALSLTADQMVSALLDAEPPILYSEYDPTRPFSEASMMGLLTNLADRELVHMINWAKRVPGFVDLTLHDQVHLLECAWLEILMIGLVWRSMEHPGKLLFAPNLLLDRNQGKCVEGMVEIFDMLLATSSRFRMMNLQGEEFVCLKSIILLNSGVYTFLSSTLKSLEEKDHIHRVLDKITDTLIHLMAKAGLTLQQQHQRLAQRLLILSHIRHMSNKGMEHLYSMKCKNVVPLYDLLLEMLDAHRLHAPTSRGGASVEETDQSHLATAGSTSSHSLQKYYITGEAEGFPATV [chain 1 L507R] | 1.07
